Reference: publication PMC3722096, “Crystal Structure of the N-Acetyltransferase Domain of Human N-Acetyl-L-Glutamate Synthase in Complex with N-Acetyl-L-Glutamate Provides Insights into Its Catalytic and Regulatory Mechanisms” (PLoS ONE, 2013)

Columns and labels:
[1] = target: NAT domain of mouse NAGS (mouse); assay: SEC; analytic gel filtration, Superdex 200 HR 10/30; 100 mM NaH2PO4 pH 7.4, 150 mM NaCl, 10% glycerol, 1 mM β-mercaptoethanol; weights from a standard curve
[2] = target: the molecule itself; assay: cross-linking; dimethyl suberimidate (4.5 µg) or suberic acid bis(3-sulfo-N-hydroxysuccinimide ester) sodium salt (9.0 µg), 10 µl of 200 mM triethanolamine pH 8.25, three hours at 298 K; SDS-PAGE, Coomassie (mNAGS) or silver (hNAGS) stain
[3] = target: the molecule itself; assay: SEC; analytic gel filtration, Superdex 200 HR 10/30; 100 mM NaH2PO4 pH 7.4, 150 mM NaCl, 10% glycerol, 1 mM β-mercaptoethanol; weights from a standard curve

Q: Which stoichiometry N [1] does the source give for “NAT domain of mouse NAGS (domain or fragment)” here?
A: 2

B1: complete mouse N-acetylglutamate synthase (enzyme, UniProt Q8R4H7 19-527, looked up)
chain: LRSPGGPGGSRRLSGSARRRGAKSASPGRRLSTARAHAEDAEGAKGRVQSPAVEEPSWTPLPTPLESPAPPAGRSLVQRDIQAFLNQCGASPGEARHWLTQFQTCYHSVDKPFAVMEVDEEVIRCPQAVSRLAFALAFLQRMDMKPLVVLGLPTPTAPSGCLSFWEAKAQLAQSCKVLVDELRHNAATAVPFFGGGSVLSAAEPAPHASYGGIVAVETDLLQWCLESNSIPILCPIGETAARRSVLLDSLEVTASLAKALQPTKIIFLNNSGGLRNNSQKILSNVNLPADLDLVTNAEWLSIKERQQIRLIVDVLSRLPHYSSAVITAASTLLTELFSNKGCGTLFKNAERMLRVRNLDSLDQGRLVNLVNASFGKKLREDYLESLRPRLHSIYVSEGYNAAAILTVEPVLGGTPYLDKFVVSSSRQGQGSGQMLWECLRRDLQTLFWRSRVTNPINPWYFKHSDGSFSNKQWIFFWFGLADIRDSYELVNHAKGLPDSFCKPASDPGS
notes: N-acetylglutamate synthase (NAGS, EC 2.3.1.1), mouse; the printed tetramer weight of 195.8 kDa gives 48.95 kDa a subunit; also called mNAGS; mouse NAGS
Q: For B1, which “stoichiometry N” value [2] is on record?
A: 4

B2: complete human N-acetylglutamate synthase (enzyme, UniProt Q8N159 19-534, looked up)
chain: LRGRGGTGGARRLSCGARRRAARGTSPGRRLSTAWSQPQPPPEEYAGADDVSQSPVAEEPSWVPSPRPPVPHESPEPPSGRSLVQRDIQAFLNQCGASPGEARHWLTQFQTCHHSADKPFAVIEVDEEVLKCQQGVSSLAFALAFLQRMDMKPLVVLGLPAPTAPSGCLSFWEAKAQLAKSCKVLVDALRHNAAAAVPFFGGGSVLRAAEPAPHASYGGIVSVETDLLQWCLESGSIPILCPIGETAARRSVLLDSLEVTASLAKALRPTKIIFLNNTGGLRDSSHKVLSNVNLPADLDLVCNAEWVSTKERQQMRLIVDVLSRLPHHSSAVITAASTLLTELFSNKGSGTLFKNAERMLRVRSLDKLDQGRLVDLVNASFGKKLRDDYLASLRPRLHSIYVSEGYNAAAILTMEPVLGGTPYLDKFVVSSSRQGQGSGQMLWECLRRDLQTLFWRSRVTNPINPWYFKHSDGSFSNKQWIFFWFGLADIRDSYELVNHAKGLPDSFHKPASDPGS
notes: N-acetylglutamate synthase (NAGS, EC 2.3.1.1), human; the printed tetramer weight of 202.4 kDa gives 50.6 kDa a subunit; also called hNAGS; human NAGS
Q: Which “stoichiometry N” value [2] does the source give for B2 here?
A: 4

B3: human NAGS N-acetyltransferase domain (residues 377-534), as used in gel filtration (domain or fragment, UniProt Q8N159 377-534, looked up)
chain: MLRVRSLDKLDQGRLVDLVNASFGKKLRDDYLASLRPRLHSIYVSEGYNAAAILTMEPVLGGTPYLDKFVVSSSRQGQGSGQMLWECLRRDLQTLFWRSRVTNPINPWYFKHSDGSFSNKQWIFFWFGLADIRDSYELVNHAKGLPDSFHKPASDPGS
notes: N-acetyltransferase (NAT) domain of human N-acetylglutamate synthase, residues 377-534; also called hNAT; hNAT domain
Q: With B3 as the molecule, how does the “stoichiometry N” value [3] read?
A: 2
